Measured values published in patent publication US20170233472A1.

Columns and labels:
[1] = biological target: human ROR1 expressed on the surface of cancer cells (human) (UniProt Q01973); experiment: FACS on PC-3 cells (ROR1-expressing), isotype control, concentration not given; PE-A, Anti-EK Biotin
[2] = biological target: human ROR1 expressed on the surface of cancer cells (human) (UniProt Q01973); experiment: FACS on HBL-2 cells (ROR1-expressing), isotype control, concentration not given; PE-A, Anti-EK Biotin

Chain of human ROR1 expressed on the surface of cancer cells (human) (Q01973 30-937): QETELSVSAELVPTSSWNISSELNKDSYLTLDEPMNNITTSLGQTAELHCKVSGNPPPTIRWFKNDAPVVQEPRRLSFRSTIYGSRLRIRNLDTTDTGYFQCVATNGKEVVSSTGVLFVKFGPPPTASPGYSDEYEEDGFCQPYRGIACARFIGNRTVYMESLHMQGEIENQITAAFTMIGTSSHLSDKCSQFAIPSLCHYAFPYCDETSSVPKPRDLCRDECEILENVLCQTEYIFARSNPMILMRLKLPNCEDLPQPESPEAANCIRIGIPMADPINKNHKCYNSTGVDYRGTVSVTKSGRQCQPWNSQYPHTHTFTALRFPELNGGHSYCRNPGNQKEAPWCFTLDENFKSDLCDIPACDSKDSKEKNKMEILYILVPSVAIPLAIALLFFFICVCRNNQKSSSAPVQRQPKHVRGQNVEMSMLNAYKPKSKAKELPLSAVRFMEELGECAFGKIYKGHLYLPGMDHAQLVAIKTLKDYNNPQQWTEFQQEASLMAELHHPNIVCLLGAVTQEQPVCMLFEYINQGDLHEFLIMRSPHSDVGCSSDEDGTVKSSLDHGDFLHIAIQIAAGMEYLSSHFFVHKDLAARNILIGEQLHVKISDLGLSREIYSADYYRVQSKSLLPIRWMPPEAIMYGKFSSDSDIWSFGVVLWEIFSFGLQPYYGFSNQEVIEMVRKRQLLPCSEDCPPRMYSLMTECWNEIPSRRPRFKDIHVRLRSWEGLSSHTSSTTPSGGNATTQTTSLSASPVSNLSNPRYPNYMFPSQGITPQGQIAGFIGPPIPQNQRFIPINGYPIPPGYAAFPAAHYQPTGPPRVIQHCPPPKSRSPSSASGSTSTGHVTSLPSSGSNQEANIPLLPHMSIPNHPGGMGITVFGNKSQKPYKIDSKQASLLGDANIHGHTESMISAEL

Q: Which results are given for Isotype Control?
A: Mean: PE-A [1]: 85.2; Mean: PE-A [2]: 13.8
